Measurements from patent US20220016218A1 (YISSUM RESEARCH DEVELOPMENT COMPANY OF THE HEBREW …, published 2022).
*1 amine or outer side, *2 acyl side, *3 side chain or, on linkers, in order; H or OH if unused. Where a SMILES comes first, the peptide text is derived from it. [ ]: non-standard residue; d: D form. Arg(ω,ω'-(C6H13OCO)2) = CCCCCCOC(=O)N=C(NCCC[C@H](N)C(=O)O)NC(=O)OCCCCCC; X1 = CCCCCCOC(=O)N=C(NCCC[C@@H](N[*:1])C(=O)[*:2])NC(=O)OCCCCCC; dNMeR = CN[C@H](CCCNC(=N)N)C(=O)O; NMeD = CN[C@@H](CC(=O)O)C(=O)O; NMeV = CN[C@H](C(=O)O)C(C)C; NMeA = CN[C@@H](C)C(=O)O; dNMeA = CN[C@H](C)C(=O)O

Key:
[1] = shake flask in triplicate (rotator; centrifuged); both phases by HPLC-MS/MS; mebendazole reference; conditions: PBS pH 7.4, mutually saturated, not stated C, DMSO stock (small aliquot)
human αvβ6-Integrin [2] = biological target: T1, human αvβ6-Integrin (human, UniProt P06756 31-992; P18564 22-707, limits assumed); assay: solid-phase competition assay: soluble human αvβ6 on coated LAP (TGF-β)
T1 construct: Soluble integrin bought from R&D
T1 sequence (P06756 31-992 limits assumed, chain 1 of 2): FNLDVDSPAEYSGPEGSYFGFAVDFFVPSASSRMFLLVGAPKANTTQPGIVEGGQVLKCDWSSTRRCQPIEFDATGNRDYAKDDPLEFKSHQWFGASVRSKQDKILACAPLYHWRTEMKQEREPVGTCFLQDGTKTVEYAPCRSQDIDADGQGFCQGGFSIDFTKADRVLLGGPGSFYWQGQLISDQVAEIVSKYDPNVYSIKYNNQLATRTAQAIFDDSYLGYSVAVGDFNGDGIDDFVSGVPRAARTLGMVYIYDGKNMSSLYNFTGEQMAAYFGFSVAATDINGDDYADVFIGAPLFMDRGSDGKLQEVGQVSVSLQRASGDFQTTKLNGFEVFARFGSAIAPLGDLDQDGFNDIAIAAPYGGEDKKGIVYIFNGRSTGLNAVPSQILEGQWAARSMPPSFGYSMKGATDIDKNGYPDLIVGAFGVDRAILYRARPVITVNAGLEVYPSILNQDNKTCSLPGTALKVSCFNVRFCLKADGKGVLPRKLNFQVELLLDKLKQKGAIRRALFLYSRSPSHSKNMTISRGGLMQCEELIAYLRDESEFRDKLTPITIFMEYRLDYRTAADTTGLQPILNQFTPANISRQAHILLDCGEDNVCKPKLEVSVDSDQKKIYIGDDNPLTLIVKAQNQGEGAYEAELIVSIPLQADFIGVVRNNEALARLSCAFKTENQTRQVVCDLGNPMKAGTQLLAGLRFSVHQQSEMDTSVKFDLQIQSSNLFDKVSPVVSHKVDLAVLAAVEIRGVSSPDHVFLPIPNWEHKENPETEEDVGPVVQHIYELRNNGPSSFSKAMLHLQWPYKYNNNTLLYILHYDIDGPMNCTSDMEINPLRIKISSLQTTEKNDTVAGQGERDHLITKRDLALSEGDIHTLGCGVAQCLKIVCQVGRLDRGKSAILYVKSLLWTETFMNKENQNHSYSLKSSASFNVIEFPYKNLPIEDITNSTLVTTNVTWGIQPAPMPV
T1 sequence (P18564 22-707 limits assumed, chain 2 of 2): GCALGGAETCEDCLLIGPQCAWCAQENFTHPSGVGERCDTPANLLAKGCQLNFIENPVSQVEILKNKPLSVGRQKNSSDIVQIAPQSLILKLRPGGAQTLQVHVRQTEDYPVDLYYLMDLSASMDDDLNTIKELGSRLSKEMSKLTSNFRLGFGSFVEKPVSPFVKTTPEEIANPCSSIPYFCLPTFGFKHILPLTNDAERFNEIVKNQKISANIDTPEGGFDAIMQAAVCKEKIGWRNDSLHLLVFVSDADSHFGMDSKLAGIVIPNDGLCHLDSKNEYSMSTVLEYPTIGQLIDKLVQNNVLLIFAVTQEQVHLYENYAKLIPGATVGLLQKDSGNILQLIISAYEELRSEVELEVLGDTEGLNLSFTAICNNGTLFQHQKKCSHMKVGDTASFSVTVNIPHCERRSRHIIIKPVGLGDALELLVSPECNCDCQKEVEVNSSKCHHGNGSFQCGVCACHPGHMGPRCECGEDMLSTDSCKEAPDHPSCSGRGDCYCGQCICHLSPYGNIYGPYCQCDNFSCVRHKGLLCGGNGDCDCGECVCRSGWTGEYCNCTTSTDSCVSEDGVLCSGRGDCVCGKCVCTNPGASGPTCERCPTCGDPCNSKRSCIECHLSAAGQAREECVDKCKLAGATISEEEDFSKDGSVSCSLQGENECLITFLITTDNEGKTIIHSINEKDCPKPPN

human αvβ3-integrin = biological target: T2, human αvβ3-integrin (human, UniProt P06756 31-992; P05106 27-718); assay: solid-phase competition assay: soluble human αvβ3 on coated vitronectin
T2 construct: Soluble integrin bought from R&D; also called integrin subtype αvβ3; αvβ3 receptor
T2 sequence (P06756 31-992 limits assumed, chain 1 of 2): as the sequence (P06756 31-992 limits assumed, chain 1 of 2) above
T2 sequence (P05106 27-718 limits assumed, chain 2 of 2): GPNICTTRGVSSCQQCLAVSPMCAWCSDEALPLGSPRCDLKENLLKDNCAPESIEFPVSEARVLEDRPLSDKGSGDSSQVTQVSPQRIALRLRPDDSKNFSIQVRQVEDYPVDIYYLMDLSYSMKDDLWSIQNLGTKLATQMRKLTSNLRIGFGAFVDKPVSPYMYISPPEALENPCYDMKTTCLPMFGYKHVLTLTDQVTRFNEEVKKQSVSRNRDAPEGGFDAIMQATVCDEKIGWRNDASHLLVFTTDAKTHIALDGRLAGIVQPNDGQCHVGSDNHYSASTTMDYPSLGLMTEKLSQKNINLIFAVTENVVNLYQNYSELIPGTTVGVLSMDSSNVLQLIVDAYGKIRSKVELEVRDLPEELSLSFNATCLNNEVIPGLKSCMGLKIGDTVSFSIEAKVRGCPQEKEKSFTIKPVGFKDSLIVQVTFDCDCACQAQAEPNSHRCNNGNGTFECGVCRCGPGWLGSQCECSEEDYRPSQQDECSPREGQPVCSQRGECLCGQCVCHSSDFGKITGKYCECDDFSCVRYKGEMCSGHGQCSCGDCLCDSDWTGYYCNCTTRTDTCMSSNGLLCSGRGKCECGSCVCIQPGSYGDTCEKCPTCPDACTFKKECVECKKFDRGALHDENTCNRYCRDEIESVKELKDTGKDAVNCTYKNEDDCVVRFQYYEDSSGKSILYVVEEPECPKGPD

human αvβ5-integrin = biological target: T3, human αvβ5-integrin (human, UniProt P06756 31-992; P18084 24-719, limits assumed); assay: solid-phase competition assay: soluble human αvβ5 on coated vitronectin
T3 construct: Soluble integrin bought from Millipore
T3 sequence (P06756 31-992 limits assumed, chain 1 of 2): as the sequence (P06756 31-992 limits assumed, chain 1 of 2) above
T3 sequence (P18084 24-719 limits assumed, chain 2 of 2): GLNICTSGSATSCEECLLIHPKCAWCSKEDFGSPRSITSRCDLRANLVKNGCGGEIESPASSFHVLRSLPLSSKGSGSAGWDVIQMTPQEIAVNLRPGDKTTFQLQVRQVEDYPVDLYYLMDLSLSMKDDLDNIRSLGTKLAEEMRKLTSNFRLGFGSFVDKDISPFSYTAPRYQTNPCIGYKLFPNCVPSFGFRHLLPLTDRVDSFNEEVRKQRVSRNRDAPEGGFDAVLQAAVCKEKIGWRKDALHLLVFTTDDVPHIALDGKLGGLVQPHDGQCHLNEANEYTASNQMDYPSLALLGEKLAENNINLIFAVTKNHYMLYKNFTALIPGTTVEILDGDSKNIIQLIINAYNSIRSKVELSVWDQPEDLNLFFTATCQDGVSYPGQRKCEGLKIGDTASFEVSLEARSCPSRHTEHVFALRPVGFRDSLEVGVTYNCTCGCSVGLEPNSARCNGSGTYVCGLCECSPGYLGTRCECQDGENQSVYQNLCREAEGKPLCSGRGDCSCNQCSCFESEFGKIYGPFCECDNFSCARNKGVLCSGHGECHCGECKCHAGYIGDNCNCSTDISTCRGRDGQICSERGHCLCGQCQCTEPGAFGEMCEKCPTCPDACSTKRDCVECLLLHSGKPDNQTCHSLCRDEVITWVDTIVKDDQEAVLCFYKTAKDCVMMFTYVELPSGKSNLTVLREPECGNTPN

human αvβ6-Integrin [3] = biological target: T1, human αvβ6-Integrin; assay: solid-phase competition assay; value given for the internal standard
human αvβ8-Integrin = biological target: T4, human αvβ8-Integrin (human, UniProt P06756 31-992; P26012 43-684); assay: as above
T4 construct: Soluble integrin bought from R&D
T4 sequence (P06756 31-992 limits assumed, chain 1 of 2): as the sequence (P06756 31-992 limits assumed, chain 1 of 2) above
T4 sequence (P26012 43-684 limits assumed, chain 2 of 2): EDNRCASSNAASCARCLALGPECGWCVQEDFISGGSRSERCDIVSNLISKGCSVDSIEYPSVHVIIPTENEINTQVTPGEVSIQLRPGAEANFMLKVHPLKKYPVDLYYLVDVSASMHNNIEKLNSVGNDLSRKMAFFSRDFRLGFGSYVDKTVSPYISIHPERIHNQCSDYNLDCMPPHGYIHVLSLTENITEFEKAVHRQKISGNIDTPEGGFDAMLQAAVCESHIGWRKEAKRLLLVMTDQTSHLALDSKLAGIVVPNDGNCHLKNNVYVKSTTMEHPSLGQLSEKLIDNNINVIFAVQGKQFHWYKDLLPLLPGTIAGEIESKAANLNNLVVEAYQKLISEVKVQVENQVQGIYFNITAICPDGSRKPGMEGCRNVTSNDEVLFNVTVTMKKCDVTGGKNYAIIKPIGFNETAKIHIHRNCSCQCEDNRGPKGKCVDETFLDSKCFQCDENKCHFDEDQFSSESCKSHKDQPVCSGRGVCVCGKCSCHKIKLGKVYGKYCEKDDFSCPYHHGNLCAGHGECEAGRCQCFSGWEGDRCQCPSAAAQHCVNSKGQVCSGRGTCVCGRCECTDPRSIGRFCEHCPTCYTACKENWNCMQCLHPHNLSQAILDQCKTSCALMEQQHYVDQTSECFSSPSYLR

| Molecule | log D (1-octanol / PBS pH 7.4) [1] [log units] | IC50 (human αvβ3-integrin) [nM] | other results |
| --- | --- | --- | --- |
| CCCCCCOC(=O)N=C(NCCC[C@@H]1NC(=O)[C@H](C(C)C)N(C)C(=O)[C@@H](Cc2ccccc2)NC(=O)[C@H](CC(=O)O)NC(=O)CNC1=O)NC(=O)OCCCCCC | 3.95 |  |  |
| CCCCCCOC(=O)NC(=N)NCCC[C@@H]1NC(=O)[C@@H](C(C)C)N(C)C(=O)[C@H](C)N(C)C(=O)[C@H](C)NC(=O)[C@H](CC(=O)OC)NC(=O)CNC1=O | 1.85 |  |  |
| COC(=O)Nc1nc2cc(C(=O)c3ccccc3)ccc2[nH]1 | 3.04 |  |  |
| CC(C)C[C@@H]1NC(=O)[C@H](CC(=O)O)NC(=O)CNC(=O)[C@H](CCCNC(=N)N)NC(=O)[C@H](Cc2ccccc2)NC(=O)[C@@H]2CCCN2C(=O)[C@@H]2CCCN2C(=O)[C@H](CC(C)C)NC(=O)[C@H](C)NC1=O (cyclo(RGDLALPPF)) | −0.19 |  |  |
| CC(C)[C@H]1C(=O)N[C@@H](CCCNC(=N)N)C(=O)NCC(=O)N[C@@H](CC(=O)O)C(=O)N[C@H](Cc2ccccc2)C(=O)N1C | <−1 |  |  |
| CCCCCCOC(=O)N=C(NCCC[C@@H]1NC(=O)[C@@H](C(C)C)N(C)C(=O)[C@H](C)N(C)C(=O)[C@H](C)NC(=O)[C@H](CC(=O)OC)NC(=O)CNC1=O)NC(=O)OCCCCCC | 4.86 |  |  |
| CC(C)[C@@H]1C(=O)N[C@@H](CCCNC(=N)N)C(=O)NCC(=O)N[C@@H](CC(=O)O)C(=O)N[C@@H](C)C(=O)N(C)[C@@H](C)C(=O)N1C | <−1 |  |  |
| CCCCCCOC(=O)N=C(NCCC[C@@H]1NC(=O)[C@H](CC(C)C)NC(=O)CNC(=O)[C@@H]2CCCN2C(=O)[C@@H]2CCCN2C(=O)[C@H](CC(C)C)NC(=O)[C@H](CC(=O)O)NC(=O)CNC1=O)NC(=O)OCCCCCC (cyclo(LPPGL[Arg(ω,ω'-(C6H13OCO)2)]GD)) | >4.5 |  |  |
| CC(C)C[C@@H]1NC(=O)CNC(=O)[C@@H]2CCCN2C(=O)[C@@H]2CCCN2C(=O)[C@H](CC(C)C)NC(=O)[C@H](CC(=O)O)NC(=O)CNC(=O)[C@H](CCCNC(=N)N)NC1=O (cyclo(RGDLPPGL)) | <−1 |  |  |
| CCCCCCOC(=O)N=C(NCCC[C@@H]1NC(=O)[C@H](Cc2ccccc2)NC(=O)[C@@H]2CCCN2C(=O)[C@@H]2CCCN2C(=O)[C@H](CC(C)C)NC(=O)[C@H](C)NC(=O)[C@H](CC(C)C)NC(=O)[C@H](CC(=O)O)NC(=O)CNC1=O)NC(=O)OCCCCCC (cyclo(ALPPF[Arg(ω,ω'-(C6H13OCO)2)]GDL)) | >4.5 |  |  |
| CCCCCCOC(=O)N=C(NCCC[C@H]1NC(=O)[C@H](C(C)C)N(C)C(=O)[C@@H](C)N(C)C(=O)[C@@H](C)NC(=O)[C@@H](CC(=O)OC)NC(=O)CNC1=O)NC(=O)OCCCCCC (cyclo(G[dD](OMe)[dA][dNMeA][NMeV][X1])) | >4.5 |  |  |
| cyclo([dNMeR]GDA[NMeA]A) (NMe(1,5) scaffold cyclic hexapeptide) [peptide 5, c(*rGDA*AA)] |  | 13 | IC50 (human αvβ6-Integrin [2]): 25 nM; IC50 (human αvβ5-integrin): 170 nM |
| cyclo([dNMeR]GDA[NMeA]F) (NMe(1,5) scaffold cyclic hexapeptide) [peptide 33, c(*rGDA*AF)] |  | 4.4 | IC50 (human αvβ6-Integrin [2]): 25 nM |
| cyclo([dNMeR]GDA[NMeA]V) (NMe(1,5) scaffold cyclic hexapeptide) [peptide 32, c(*rGDA*AV)] |  | 5.6 | IC50 (human αvβ6-Integrin [2]): 3.8 nM |
| RTDLDSLRT (Internal standard for αvβ6 and αvβ8) [linear peptide RTDLDSLRT] |  |  | IC50 (human αvβ6-Integrin [3]): 6 to 33 nM; IC50 (human αvβ8-Integrin): 8 to 100 nM |
| cyclo([dR]G[NMeD]A[NMeA]A) (NMe(3,5) scaffold cyclic hexapeptide) [peptide 17, c(rG*DA*AA)] |  | 2350 |  |
| cyclo([dR]GDA[NMeA][NMeA]) (NMe(5,6) scaffold cyclic hexapeptide) [peptide 23, c(rGDA*A*A)] |  | 73 | IC50 (human αvβ6-Integrin [2]): 130 nM |
| cyclo([dNMeA]RGDA[NMeA]) (NMe(1,6) scaffold cyclic hexapeptide; also called the drug) [peptide 12, c(*aRGDA*A)] |  | 4.8 | IC50 (human αvβ6-Integrin [2]): 770 nM; IC50 (human αvβ5-integrin): 1500 nM |
